In patent US12044651B2, “Sensor device and methods” (SCENTIAN BIO LIMITED, priority 2016, dated 2024):

Key:
Format in all cases: binding
Details in all cases: lowest three concentrations
Or10a = biological target: T1, Or10a (Drosophila melanogaster, UniProt Q9VYZ1); assay: EIS sensor, Or10a liposomes on gold electrode (Example 1)
T1 sequence (Q9VYZ1 1-406): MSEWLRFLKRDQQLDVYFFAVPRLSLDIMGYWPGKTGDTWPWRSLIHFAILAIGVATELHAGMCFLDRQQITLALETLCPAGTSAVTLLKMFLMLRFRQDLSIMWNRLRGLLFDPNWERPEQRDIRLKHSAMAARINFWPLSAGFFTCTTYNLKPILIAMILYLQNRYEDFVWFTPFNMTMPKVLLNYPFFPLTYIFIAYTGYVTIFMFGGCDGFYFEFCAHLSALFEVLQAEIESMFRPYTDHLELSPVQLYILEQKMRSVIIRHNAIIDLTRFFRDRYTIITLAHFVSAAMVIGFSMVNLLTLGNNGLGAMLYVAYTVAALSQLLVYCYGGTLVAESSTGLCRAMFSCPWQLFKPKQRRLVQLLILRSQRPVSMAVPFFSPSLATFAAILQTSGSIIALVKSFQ
Procedure: (§1) Liposomes were prepared using a phospholipid solution produced by evaporating solutions containing: phosphatidylethanolamine (PE), phosphatidylserine (PS), phosphatidylcholine (PC), and cholesterol (CH) at a molar ratio of 5:3:3:1 in a small glass tube under a stream of N2 gas, then desiccating under vacuum for 1 h. […] To promote the formation of liposomes, 10 freeze/thaw steps were performed by transferring the tube from liquid nitrogen to a 40° C. water bath. Liposomes were then sized by passing the lipid solution 11 times through a 100-nm polycarbonate membrane using an Avestin LiposoFAST extruder unit (Avestin, Germany). Glycerol was added at 10% of the final volume and aliquots at 10 mg/mL were snap frozen in liquid nitrogen and stored at -80° C. Prior to their use, liposomes were defrosted on ice and then destabilized by incubating with 0.2% CHAPS for 15 min at room temperature. Then 200 μg of purified odorant receptor^14 was added to 1 mg of liposomes and rotated at 10 rpm for 1 h at room temperature. […] The Bio-Beads were removed after each incubation period. The OR integrated liposomes were pelleted by centrifugation at 100,000 g for 1 h, and were resuspended in 500 μL of rehydration buffer. Integration of OrXs into liposomes was assessed by density gradient ultracentrifugation (DGU) using Accudenz (Accurate Chemical & Scientific Corporation, USA). […] The sample was then centrifuged at 100,000 g for 4 h at 4° C. Liposomes will float to the top of the gradient after Accudenz DGU due to their low density. 1.3 Electrode Cleaning Gold disk (2 mm) electrodes were cleaned with polishing with Alumina paste for 2 minutes, ultra-sonicated in pure ethanol and then Milli-Q water for 5 minutes each. […] Charge transfer resistance (Rct) of electrodes were calculated by fitting obtained data to a Randles' equivalent circuit [Rs+CPE/(Rct+W)] comprising of a solution resistance (Rs) in series with a constant phase element (CPE) and in parallel with charge transfer resistance (Rct) and Warburg diffusion element. […]

OR35a = biological target: T2, OR35a (Drosophila melanogaster, UniProt Q9V3Q2); assay: EIS sensor, Or35a liposomes on gold electrode (Example 1)
T2 sequence (Q9V3Q2 1-409): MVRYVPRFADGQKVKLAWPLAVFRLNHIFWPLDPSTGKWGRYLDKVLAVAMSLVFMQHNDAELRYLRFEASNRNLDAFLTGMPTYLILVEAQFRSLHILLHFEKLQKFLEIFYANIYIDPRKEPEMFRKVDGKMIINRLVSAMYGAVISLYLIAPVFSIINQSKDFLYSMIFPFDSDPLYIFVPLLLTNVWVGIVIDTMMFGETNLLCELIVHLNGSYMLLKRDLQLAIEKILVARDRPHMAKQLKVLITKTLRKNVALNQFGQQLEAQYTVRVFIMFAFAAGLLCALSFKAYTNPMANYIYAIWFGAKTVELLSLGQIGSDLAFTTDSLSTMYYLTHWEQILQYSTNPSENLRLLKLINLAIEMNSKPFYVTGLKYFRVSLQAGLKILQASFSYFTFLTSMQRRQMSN
Procedure: as §1

Or22a = biological target: T3, Or22a (Drosophila melanogaster, UniProt P81909); assay: EIS sensor, Or22a liposomes on gold electrode (Example 1)
T3 sequence (P81909 1-397): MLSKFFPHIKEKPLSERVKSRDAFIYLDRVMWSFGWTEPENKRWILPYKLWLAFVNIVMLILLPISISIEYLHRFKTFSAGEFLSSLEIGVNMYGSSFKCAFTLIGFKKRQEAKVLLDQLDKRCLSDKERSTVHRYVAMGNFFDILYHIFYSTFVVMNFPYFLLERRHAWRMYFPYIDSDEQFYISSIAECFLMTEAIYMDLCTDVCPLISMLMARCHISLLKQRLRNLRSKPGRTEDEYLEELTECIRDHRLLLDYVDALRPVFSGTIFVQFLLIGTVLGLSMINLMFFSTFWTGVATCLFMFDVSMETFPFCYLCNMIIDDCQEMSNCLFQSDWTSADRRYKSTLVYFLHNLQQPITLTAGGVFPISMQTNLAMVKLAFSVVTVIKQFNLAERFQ
Procedure: as §1

B1: Or10a: insect odorant receptor OrX in liposomes attached to the gold electrode of the EIS sensor (protein, UniProt Q9VYZ1 1-406, looked up)
Odorant receptor 10a: MSEWLRFLKRDQQLDVYFFAVPRLSLDIMGYWPGKTGDTWPWRSLIHFAILAIGVATELHAGMCFLDRQQITLALETLCPAGTSAVTLLKMFLMLRFRQDLSIMWNRLRGLLFDPNWERPEQRDIRLKHSAMAARINFWPLSAGFFTCTTYNLKPILIAMILYLQNRYEDFVWFTPFNMTMPKVLLNYPFFPLTYIFIAYTGYVTIFMFGGCDGFYFEFCAHLSALFEVLQAEIESMFRPYTDHLELSPVQLYILEQKMRSVIIRHNAIIDLTRFFRDRYTIITLAHFVSAAMVIGFSMVNLLTLGNNGLGAMLYVAYTVAALSQLLVYCYGGTLVAESSTGLCRAMFSCPWQLFKPKQRRLVQLLILRSQRPVSMAVPFFSPSLATFAAILQTSGSIIALVKSFQ
modifications: in liposomes
notes: insect odorant receptor OrX in liposomes attached to the gold electrode of the EIS sensor
Sensitivity of the sensor (slope of the linear range) (Or10a): 0.313 units/[log(conc/M)]

B2: Or35a: insect odorant receptor OrX in liposomes attached to the gold electrode of the EIS sensor (protein, UniProt Q9V3Q2 1-409, looked up)
Odorant receptor 35a: MVRYVPRFADGQKVKLAWPLAVFRLNHIFWPLDPSTGKWGRYLDKVLAVAMSLVFMQHNDAELRYLRFEASNRNLDAFLTGMPTYLILVEAQFRSLHILLHFEKLQKFLEIFYANIYIDPRKEPEMFRKVDGKMIINRLVSAMYGAVISLYLIAPVFSIINQSKDFLYSMIFPFDSDPLYIFVPLLLTNVWVGIVIDTMMFGETNLLCELIVHLNGSYMLLKRDLQLAIEKILVARDRPHMAKQLKVLITKTLRKNVALNQFGQQLEAQYTVRVFIMFAFAAGLLCALSFKAYTNPMANYIYAIWFGAKTVELLSLGQIGSDLAFTTDSLSTMYYLTHWEQILQYSTNPSENLRLLKLINLAIEMNSKPFYVTGLKYFRVSLQAGLKILQASFSYFTFLTSMQRRQMSN
modifications: in liposomes
notes: as for B1
Sensitivity of the sensor (slope of the linear range) (OR35a): 0.116 units/[log(conc/M)]

B3: Or22a: insect odorant receptor OrX in liposomes attached to the gold electrode of the EIS sensor (protein, UniProt P81909 1-397, looked up)
Odorant receptor 22a: MLSKFFPHIKEKPLSERVKSRDAFIYLDRVMWSFGWTEPENKRWILPYKLWLAFVNIVMLILLPISISIEYLHRFKTFSAGEFLSSLEIGVNMYGSSFKCAFTLIGFKKRQEAKVLLDQLDKRCLSDKERSTVHRYVAMGNFFDILYHIFYSTFVVMNFPYFLLERRHAWRMYFPYIDSDEQFYISSIAECFLMTEAIYMDLCTDVCPLISMLMARCHISLLKQRLRNLRSKPGRTEDEYLEELTECIRDHRLLLDYVDALRPVFSGTIFVQFLLIGTVLGLSMINLMFFSTFWTGVATCLFMFDVSMETFPFCYLCNMIIDDCQEMSNCLFQSDWTSADRRYKSTLVYFLHNLQQPITLTAGGVFPISMQTNLAMVKLAFSVVTVIKQFNLAERFQ
modifications: in liposomes
notes: as for B1
Sensitivity of the sensor (slope of the linear range) (Or22a): 0.156 units/[log(conc/M)]
